Results on four molecules are retold here after patent US20260234242A1 (HAINAN SIMCERE ZAIMING PHARMACEUTICAL, published 2026).

Where two headings read alike, the source gives them in different places.

In general, Kd refers to the concentration at which binding is half-saturated. A word on the koff: it is the rate constant with which the complex falls apart. By kon is commonly meant the rate constant with which the complex forms. Lower therefore signals slower complex formation. Usually EC50 stands for the concentration at which the effect is half-maximal. Lower therefore signals higher potency in that assay.

Test [1] concerns the target T1, his-tagged human CDH6 extracellular region protein (hCDH6 ECD-his) (human, UniProt P55285 19-615).
T1 construct: also called Human CDH6-his; hCDH6-his; not shown: his tag
T1 sequence: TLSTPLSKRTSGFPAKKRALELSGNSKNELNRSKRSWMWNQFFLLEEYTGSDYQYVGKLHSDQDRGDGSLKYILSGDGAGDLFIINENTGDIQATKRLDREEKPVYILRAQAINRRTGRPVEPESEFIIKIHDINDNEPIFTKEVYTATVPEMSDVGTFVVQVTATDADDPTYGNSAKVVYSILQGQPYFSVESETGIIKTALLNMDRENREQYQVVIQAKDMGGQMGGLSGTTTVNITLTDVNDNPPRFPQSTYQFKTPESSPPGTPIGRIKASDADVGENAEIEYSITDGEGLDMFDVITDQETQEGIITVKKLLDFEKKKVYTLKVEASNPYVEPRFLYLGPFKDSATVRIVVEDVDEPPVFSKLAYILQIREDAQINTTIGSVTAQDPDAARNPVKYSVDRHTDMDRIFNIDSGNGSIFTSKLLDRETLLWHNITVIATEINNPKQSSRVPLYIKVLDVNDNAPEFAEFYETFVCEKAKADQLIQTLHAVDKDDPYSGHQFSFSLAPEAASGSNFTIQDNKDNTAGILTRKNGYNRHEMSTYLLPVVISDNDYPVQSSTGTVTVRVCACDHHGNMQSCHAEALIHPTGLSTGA
Put plainly: SPR Biacore, antibody captured on Protein A. As for the experimental part:
(§1) The affinity of the antibody for the antigen was determined by a multi-cycle kinetic method using a BIAcore 8K instrument. In each cycle, the antibody to be tested was captured using a Protein A chip (purchased from GE, Cat. No. 29-1275-56), and then the antigen human CDH6 protein (hCDH6-his, conventionally synthesized) was injected. The association and dissociation processes of the antibody with the antigen protein were recorded, and finally, the chip was regenerated using Glycine pH 1.5, wherein the mobile phase was HBS-EP+ (10 mM HEPES, 150 mM NaCl, 3 mM EDTA, 0.05% surfactant P20, and 1 mM Ca), the flow rate was 30 μL/min, the association time was 240 s, the dissociation time was 300 s, the regeneration time was 30 s, the detection temperature was 25° C., and the antigen concentration was 31.25-1000 nM. The data were analyzed using Biacore 8K analysis software (version No. 2.0) based on the 1:1 binding model to fit the antibody-antigen binding kinetic parameters, including the association rate constant ka, the dissociation rate constant kd, and the equilibrium dissociation constant KD. The affinity values of the control antibody DS-H01L02 were undetectable. Antibodies not shown in the table had undetectable affinity values.
Four hCDH6-1 humanized antibodies with fewer back mutations were selected, and the affinity for human CDH6 protein was further confirmed using Biacore.
In general terms: Surface plasmon resonance follows binding to a sensor surface in real time, without labels.

In test [2] the target is T1, his-tagged human CDH6 extracellular …. Put plainly: ELISA, coated antigen.
The target in test [3] is T2, human CDH6 on tumor cells (OVCAR3 cells, PA-1 cells) (human, UniProt P55285 54-790).
T2 sequence: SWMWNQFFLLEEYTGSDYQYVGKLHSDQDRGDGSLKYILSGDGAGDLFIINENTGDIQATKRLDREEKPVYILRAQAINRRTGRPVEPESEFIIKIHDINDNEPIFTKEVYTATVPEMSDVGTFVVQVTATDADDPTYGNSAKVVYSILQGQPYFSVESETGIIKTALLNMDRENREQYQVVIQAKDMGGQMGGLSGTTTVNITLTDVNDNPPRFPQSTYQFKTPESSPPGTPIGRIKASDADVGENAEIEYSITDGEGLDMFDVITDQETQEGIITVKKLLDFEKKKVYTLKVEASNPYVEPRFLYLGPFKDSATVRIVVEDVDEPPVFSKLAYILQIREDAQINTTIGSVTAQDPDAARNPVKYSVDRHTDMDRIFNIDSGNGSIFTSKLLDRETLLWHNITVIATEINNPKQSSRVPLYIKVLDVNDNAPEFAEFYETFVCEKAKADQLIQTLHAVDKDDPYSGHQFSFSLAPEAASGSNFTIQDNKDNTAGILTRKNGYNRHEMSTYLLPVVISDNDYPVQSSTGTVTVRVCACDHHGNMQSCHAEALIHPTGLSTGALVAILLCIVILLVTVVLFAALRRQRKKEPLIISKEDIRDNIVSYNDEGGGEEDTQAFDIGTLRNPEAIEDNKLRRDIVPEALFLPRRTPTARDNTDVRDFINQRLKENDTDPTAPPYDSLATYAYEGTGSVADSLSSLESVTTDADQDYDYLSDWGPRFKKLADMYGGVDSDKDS
Briefly: FACS, OVCAR3 cells. As for the experimental part: (§2) OVCAR3 cells with high expression of CDH6 and PA-1 cells with moderate expression of CDH6 were used to detect the binding activity of the antibodies to the cells. […] The cells were washed once with PBS, counted, resuspended to 2×10⁶ cells/mL in an FACS buffer (PBS+2% FBS), and then added to a 96-well plate at 50 μL/well. The chimeric antibodies were diluted with FACS buffer (PBS+2% FBS) and added to the 96-well plate at 50 μL/well, and the plate was incubated at 4° C. for 1 h. […] The dilution was added to the 96-well plate at 50 μL/well, and the plate was incubated at 4° C. for 1 h. After the plates were centrifuged and washed 2 times with PBS, the cells were resuspended in an FACS buffer. The mean fluorescence intensity (MFI) was measured using FACS Canton II (BD). Analysis was performed by the GraphPad Prism software, data were fitted, and EC50 values were calculated. The chimeric antibodies tested had strong binding to both OVCAR3 cells and PA-1 cells.
(§3) According to the above sequences, heavy chain (HC) and light chain (LC) plasmids were constructed (the nucleic acid sequences encoding the VH and VL of the antibodies were recombined into an expression vector carrying a signal peptide (SEQ ID NO: 132, […]) and a heavy chain constant region/light chain constant region sequence to obtain recombinant plasmids expressing VH-CH1-Fc/VL-CL). According to the expression and purification methods in Example 2, the hCDH6-1 humanized antibodies were obtained, and the binding activity of the humanized antibodies was detected by ELISA and FACS (see 2.2 and 2.3 for the method).
For orientation: A flow cytometer gives signals particle by particle.

Test [4] has as its target T1, his-tagged human CDH6 extracellular …. Briefly: SPR Biacore, antibody captured on Protein A. How it is done: as §1
Four hCDH6-6 humanized antibodies with fewer back mutations were selected, and the affinity for human CDH6 protein was further confirmed using Biacore.
The source holds these as a separate data set.

For test [5] the target is unchanged. Briefly: ELISA, coated antigen. How it is done: Human CDH6 protein (hCDH6 ECD-his, conventionally synthesized), monkey CDH6 protein (cynoCDH6 ECD-his, conventionally synthesized; the cynoCDH6 ECD sequence was derived from Uniprot #A0A2K5TW62 (19-615)), and murine CDH6 protein (mCDH6 ECD-his, conventionally synthesized; the mCDH6 ECD sequence was derived from Uniprot #P97326 (19-615)) were diluted with PBS to a final concentration of 1 μg/mL, and added to a 96-well ELISA plate at 100 μL/well. The plate was incubated at 4° C. overnight. The next day, the plate was washed 3 times with a plate washing solution (PBS+0.01% (v/v) Tween 20), and a blocking buffer (PBS+0.01% (v/v) Tween 20+2% (w/w) BSA) was added for blocking at room temperature for 2 h. The blocking buffer was discarded, and the plate was washed 3 times. The chimeric antibodies were diluted with 1% BSA+PBS (purchased from Cytiva, Cat. No. SH30264.01) and added to the 96-well plate at 50 μL/well. After incubation at 37° C. for 2 h, the plate was washed 3 times with a plate washing solution. […] The plate was incubated at 37° C. for 1 h and then washed 5 times with a plate washing solution. A TMB substrate (purchased from Seracare, Cat. No. 5120-0077) was added at 50 μL/well and incubated at room temperature for 10 min, then a stop solution (1.0 N HCl) was added at 50 μL/well. OD450 nm values were read using a microplate reader (Biotek). Analysis was performed by the GraphPad Prism software, data were fitted, and EC50 values were calculated. The chimeric antibodies tested all had strong binding to the human CDH6 protein, the monkey CDH6 protein, and the murine CDH6 protein.
According to the above sequences, heavy chain (HC) and light chain (LC) plasmids were constructed (the nucleic acid sequences encoding the VH and VL of the antibodies were recombined into an expression vector carrying a signal peptide (SEQ ID NO: 132, […]) and a heavy chain constant region/light chain constant region sequence to obtain recombinant plasmids expressing VH—CH1-Fc/VL-CL).
This is another data set of the same source. For orientation: An ELISA detects its analyte on a solid surface through an enzyme-linked reagent.

Test [6] concerns the target T2, human CDH6 on tumor cells (OVCAR3 …). Briefly: FACS, OVCAR3 cells. How it is done:
as §2
as §3, with “VH—CH1-Fc/VL-CL).” for “VH-CH1-Fc/VL-CL).”, “hCDH6-6” for “hCDH6-1”
This is another data set of the same source.

B1: hCDH6-1-H1L3 (antibody, V domains shown)
VH: EVQLVQSGAEVKKPGSSVKVSCKASGYTFSNYWMHWVRQAPGQGLEWMGDIDPSHSETHYTQKFKDRVTITVDKSTSTAYMELSSLRSEDTAVYYCARGDLGRFDYWGQGTTVTVSS
VL: DIQMTQSPSSLSASVGDRVTITCRASESVSIHGTHLMHWYQQKPGKPPKLLIYAASNLESGVPSRFSGSGSETDFTFTISSLQPEDIATYYCQQSFEDPWTFGGGTKVEIK
notes: Humanized
As to B1, in test [1], binding was put at a Kd of 18.9 nM, the koff was 0.00824 s⁻¹ and the kon was 435000 M⁻¹ s⁻¹. Also, in test [2], the EC50 is 0.029 nM and the “Max OD450” value was 2.67 OD450. In test [3], the EC50 was 0.175 nM and the “Max MFI” value turned out to be 14500 MFI.

B2: hCDH6-6-H1L2 (antibody, V domains shown)
VH: EVQLVQSGAEVKKPGASVKVSCKASGYTFTDYYMAWVRQAPGQGLEWMGYIFPNSGGTDYSQKFKGRVTMTVDKSTSTVYMELSSLRSEDTAVYYCARELGADYGDYYAMDHWGQGTTVTVSS
VL: DIQMTQSPSSLSASVGDRVTITCRASENIDSYLAWYQQKPGKSPKLLVYSATLLADGVPSRFSGSGSGTDYTLTISSLQPEDFATYYCQHYYRTPPTFGQGTKLEIK
notes: Humanized
In test [4], B2 registered a Kd of 138 nM, a koff of 0.00607 s⁻¹ and a kon of 44100 M⁻¹ s⁻¹. For the same molecule, in test [5], it took 0.028 nM to reach a half-maximal effect (EC50) and the “Max OD450” value was determined as 2.07 OD450. Further, in test [6], the EC50 was determined as 0.62 nM and the “Max MFI” value amounted to 14300 MFI.

B3: hCDH6-6-H2L1 (antibody, V domains shown)
VH: EVQLVQSGAEVKKPGASVKVSCKASGYTFTDYYMAWVRQAPGQGLEWMGYIFPNSGGTDYSQKFKGRVTLTVDKSTSTVYMELSSLRSEDTAVYYCARELGADYGDYYAMDHWGQGTTVTVSS
VL: DIQMTQSPSSLSASVGDRVTITCRASENIDSYLAWYQQKPGKSPKLLLYSATLLADGVPSRFSGSGSGTDYTLTISSLQPEDFATYYCQHYYRTPPTFGQGTKLEIK
notes: Humanized
Regarding B3, in test [4], the Kd is 133 nM, the koff was found to be 0.00616 s⁻¹ and the kon was determined as 46200 M⁻¹ s⁻¹. Also, in test [5], the EC50 came to 0.032 nM and the “Max OD450” value came out at 2.01 OD450. In test [6], the EC50 came to 0.61 nM and the “Max MFI” value is 14000 MFI.

B4: hCDH6-6-H1L1 (antibody, V domains shown)
VH: EVQLVQSGAEVKKPGASVKVSCKASGYTFTDYYMAWVRQAPGQGLEWMGYIFPNSGGTDYSQKFKGRVTMTVDKSTSTVYMELSSLRSEDTAVYYCARELGADYGDYYAMDHWGQGTTVTVSS
VL: DIQMTQSPSSLSASVGDRVTITCRASENIDSYLAWYQQKPGKSPKLLLYSATLLADGVPSRFSGSGSGTDYTLTISSLQPEDFATYYCQHYYRTPPTFGQGTKLEIK
notes: Humanized
For the molecule B4, in test [4], the Kd was determined as 192 nM, the koff is 0.00743 s⁻¹ and the kon was found to be 38600 M⁻¹ s⁻¹. Also, in test [5], the EC50 amounted to 0.037 nM and the “Max OD450” value is 2.08 OD450. Also, in test [6], the midpoint of the response, the EC50, lay at 0.62 nM and the “Max MFI” value was determined as 13700 MFI.
